Assay results reported in publication PMC13041742, “Nonlinear stiffness of NompC gating spring and its implication in mechanotransduction” (Science Advances, 2026).

Biological target: the molecule itself
Experiment: negative-stain EM with 2D class averaging; purified NompC-Δ12; raw micrographs and 2D class averages

B1: NompC-Δ12 (complex, Drosophila, UniProt E0A9E1 1-1732, looked up)
chain: MSQPRGGRGGGRGGGVGRKTPSSLTGPPDESATPSERATPASKADSDPKDDSSSNGDKKDMDLFPAPKPPSAGASIRDTANKVLGLAMKSEWTPIEAELKKLEKYVANVGEDGNHIPLAGVHDMNTGETPLHMACRACHPDIVRHLIETVKEKHGPDKATTYINSVNEDGATALHYTCQITKEEVKIPESDKQIVRMLLENGADVTLQTKTALETAFHYCAVAGNNDVLMEMISHMNPTDIQKAMNRQSSVGWTPLLIACHRGHMELVNNLLANHARVDVFDTEGRSALHLAAERGYLHVCDALLTNKAFINSKSRVGRTALHLAAMNGFTHLVKFLIKDHNAVIDILTLRKQTPLHLAAASGQMEVCQLLLELGANIDATDDLGQKPIHVAAQNNYSEVAKLFLQQHPSLVNATSKDGNTCAHIAAMQGSVKVIEELMKFDRSGVISARNKLTDATPLQLAAEGGHADVVKALVRAGASCTEENKAGFTAVHLAAQNGHGQVLDVLKSTNSLRINSKKLGLTPLHVAAYYGQADTVRELLTSVPATVKSETPTGQSLFGDLGTESGMTPLHLAAFSGNENVVRLLLNSAGVQVDAATIENGYNPLHLACFGGHMSVVGLLLSRSAELLQSQDRNGRTGLHIAAMHGHIQMVEILLGQGAEINATDRNGWTPLHCAAKAGHLEVVKLLCEAGASPKSETNYGCAAIWFAASEGHNEVLRYLMNKEHDTYGLMEDKRFVYNLMVVSKNHNNKPIQEFVLVSPAPVDTAAKLSNIYIVLSTKEKERAKDLVAAGKQCEAMATELLALAAGSDSAGKILQATDKRNVEFLDVLIENEQKEVIAHTVVQRYLQELWHGSLTWASWKILLLLVAFIVCPPVWIGFTFPMGHKFNKVPIIKFMSYLTSHIYLMIHLSIVGITPIYPVLRLSLVPYWYEVGLLIWLSGLLLFELTNPSDKSGLGSIKVLVLLLGMAGVGVHVSAFLFVSKEYWPTLVYCRNQCFALAFLLACVQILDFLSFHHLFGPWAIIIGDLLKDLARFLAVLAIFVFGFSMHIVALNQSFANFSPEDLRSFEKKNRNRGYFSDVRMHPINSFELLFFAVFGQTTTEQTQVDKIKNVATPTQPYWVEYLFKIVFGIYMLVSVVVLINLLIAMMSDTYQRIQAQSDIEWKFGLSKLIRNMHRTTTAPSPLNLVTTWFMWIVEKVKARMKKKKRPSLVQMMGIRQASPRTKAGAKWLSKIKKDSVALSQVHLSPLGSQASFSQANQNRIENVADWEAIAKKYRALVGDEEGGSLKDSDAESGSQEGSGGQQPPAQVGRRAIKATLADTTK
notes: NompC (no mechanoreceptor potential C), Drosophila, NP_001245891.1, lacking the N-terminal 12 ankyrin repeats (amino acids 126 to 533); Full-length NompC with an internal deletion of residues 126-533; also called truncated NompC-Δ12; NompC complex with the N-terminal 12 ARs removed; not shown: SpyTag, N-terminal, kept; enhanced green fluorescent protein (after a 3C cleavage site), C-terminal, …
- stoichiometry N: 4
